Assay results reported in PMC3585263, “A Novel Ion Channel Formed by Interaction of TRPML3 with TRPV5” (PLoS ONE, 2013).
Values belong to the molecule of their own block, whether it stands above or below them.

Experiments:
[1] = biological target: TRPML3 (not stated (human or mouse cDNA cloned)) (UniProt Q8R4F0); experiment: FRET or BRET; acceptor photobleaching FRET in transiently transfected HEK293 cells; C-terminal CFP and YFP fusions; FRET efficiency from the recovery of CFP fluorescence during YFP photobleaching
TRPML3 = biological target: T1, TRPML3 ( (human or mouse cDNA cloned), UniProt Q8R4F0 1-553); experiment: as above; settings: partners not purified
T1 construct: TRPML3 cation channel; pcDNA3.1 plasmids held full-length mouse TRPML3 (NM_134160) and human TRPML3 (NM_018298); 'full-length' is printed for the mouse cDNA; Stood as CFP fusion and as YFP fusion in the FRET pairs; also called mucolipin 3; source: HEK293, transiently transfected, in cells; not shown: YFP or CFP, C-terminal, kept
T1 sequence (looked up): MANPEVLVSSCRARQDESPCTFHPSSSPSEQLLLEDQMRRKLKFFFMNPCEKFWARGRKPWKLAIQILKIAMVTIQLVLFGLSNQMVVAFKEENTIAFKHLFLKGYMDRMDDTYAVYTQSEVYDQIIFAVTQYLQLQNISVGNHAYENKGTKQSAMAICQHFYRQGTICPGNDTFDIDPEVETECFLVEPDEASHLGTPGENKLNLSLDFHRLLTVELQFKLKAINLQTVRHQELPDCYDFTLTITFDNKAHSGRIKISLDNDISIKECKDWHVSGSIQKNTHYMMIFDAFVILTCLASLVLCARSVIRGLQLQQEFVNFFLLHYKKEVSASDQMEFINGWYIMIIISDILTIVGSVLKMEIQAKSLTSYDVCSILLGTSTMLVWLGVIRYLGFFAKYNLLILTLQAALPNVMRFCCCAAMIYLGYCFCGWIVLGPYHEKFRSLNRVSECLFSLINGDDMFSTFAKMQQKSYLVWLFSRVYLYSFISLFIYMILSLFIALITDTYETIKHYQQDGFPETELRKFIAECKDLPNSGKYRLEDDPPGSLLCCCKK

TRPV5 (mouse) [2] = biological target: TRPV5 (mouse) (UniProt P69744)
TRPV5 (mouse) [3] = biological target: TRPV5 (mouse) (UniProt P69744); remark: listed apart in the source

TRPV5 (mouse), sequence (P69744 whole entry): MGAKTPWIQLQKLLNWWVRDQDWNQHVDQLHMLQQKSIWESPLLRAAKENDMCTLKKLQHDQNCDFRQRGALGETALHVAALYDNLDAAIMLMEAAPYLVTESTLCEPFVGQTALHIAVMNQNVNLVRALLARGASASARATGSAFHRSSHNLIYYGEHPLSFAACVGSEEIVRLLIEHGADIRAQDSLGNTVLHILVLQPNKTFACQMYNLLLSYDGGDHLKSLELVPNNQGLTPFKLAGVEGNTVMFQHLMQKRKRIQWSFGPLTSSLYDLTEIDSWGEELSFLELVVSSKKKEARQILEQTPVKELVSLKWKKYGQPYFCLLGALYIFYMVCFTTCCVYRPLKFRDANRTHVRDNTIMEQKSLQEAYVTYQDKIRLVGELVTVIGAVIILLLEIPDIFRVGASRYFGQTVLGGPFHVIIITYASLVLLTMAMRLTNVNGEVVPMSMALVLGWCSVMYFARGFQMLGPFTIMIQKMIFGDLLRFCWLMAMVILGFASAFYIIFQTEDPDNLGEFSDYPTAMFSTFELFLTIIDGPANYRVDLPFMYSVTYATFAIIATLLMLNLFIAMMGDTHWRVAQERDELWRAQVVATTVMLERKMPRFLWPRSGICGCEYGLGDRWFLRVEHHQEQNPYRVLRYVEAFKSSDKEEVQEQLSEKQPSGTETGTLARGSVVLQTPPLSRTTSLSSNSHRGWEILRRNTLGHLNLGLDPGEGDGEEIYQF

B3: PKD2 (natural protein, UniProt Q13563 1-968, looked up)
chain: MVNSSRVQPQQPGDAKRPPAPRAPDPGRLMAGCAAVGASLAAPGGLCEQRGLEIEMQRIRQAAARDPPAGAAASPSPPLSSCSRQAWSRDNPGFEAEEEEEEVEGEEGGMVVEMDVEWRPGSRRSAASSAVSSVGARSRGLGGYHGAGHPSGRRRRREDQGPPCPSPVGGGDPLHRHLPLEGQPPRVAWAERLVRGLRGLWGTRLMEESSTNREKYLKSVLRELVTYLLFLIVLCILTYGMMSSNVYYYTRMMSQLFLDTPVSKTEKTNFKTLSSMEDFWKFTEGSLLDGLYWKMQPSNQTEADNRSFIFYENLLLGVPRIRQLRVRNGSCSIPQDLRDEIKECYDVYSVSSEDRAPFGPRNGTAWIYTSEKDLNGSSHWGIIATYSGAGYYLDLSRTREETAAQVASLKKNVWLDRGTRATFIDFSVYNANINLFCVVRLLVEFPATGGVIPSWQFQPLKLIRYVTTFDFFLAACEIIFCFFIFYYVVEEILEIRIHKLHYFRSFWNCLDVVIVVLSVVAIGINIYRTSNVEVLLQFLEDQNTFPNFEHLAYWQIQFNNIAAVTVFFVWIKLFKFINFNRTMSQLSTTMSRCAKDLFGFAIMFFIIFLAYAQLAYLVFGTQVDDFSTFQECIFTQFRIILGDINFAEIEEANRVLGPIYFTTFVFFMFFILLNMFLAIINDTYSEVKSDLAQQKAEMELSDLIRKGYHKALVKLKLKKNTVDDISESLRQGGGKLNFDELRQDLKGKGHTDAEIEAIFTKYDQDGDQELTEHEHQQMRDDLEKEREDLDLDHSSLPRPMSSRSFPRSLDDSEEDDDEDSGHSSRRRGSISSGVSYEEFQVLVRRVDRMEHSIGSIVSKIDAVIVKLEIMERAKLKRREVLGRLLDGVAEDERLGRDSEIHREQMERLVREELERWESDDAASQISHGLGTPVGLNGQPRPRSSRPSSSQSTEGMEGAGGNGSSNVHV
notes: PKD2 (TRPP2) cation channel; construct and species not described; also called TRPP2; source: HEK293, transiently transfected, in cells; not shown: YFP or CFP, C-terminal, kept
FRET efficiency (TRPML3): < 5%

B4: TRPA1 (natural protein, UniProt O75762 1-1119, looked up)
chain: MKRSLRKMWRPGEKKEPQGVVYEDVPDDTEDFKESLKVVFEGSAYGLQNFNKQKKLKRCDDMDTFFLHYAAAEGQIELMEKITRDSSLEVLHEMDDYGNTPLHCAVEKNQIESVKFLLSRGANPNLRNFNMMAPLHIAVQGMNNEVMKVLLEHRTIDVNLEGENGNTAVIIACTTNNSEALQILLKKGAKPCKSNKWGCFPIHQAAFSGSKECMEIILRFGEEHGYSRQLHINFMNNGKATPLHLAVQNGDLEMIKMCLDNGAQIDPVEKGRCTAIHFAATQGATEIVKLMISSYSGSVDIVNTTDGCHETMLHRASLFDHHELADYLISVGADINKIDSEGRSPLILATASASWNIVNLLLSKGAQVDIKDNFGRNFLHLTVQQPYGLKNLRPEFMQMQQIKELVMDEDNDGCTPLHYACRQGGPGSVNNLLGFNVSIHSKSKDKKSPLHFAASYGRINTCQRLLQDISDTRLLNEGDLHGMTPLHLAAKNGHDKVVQLLLKKGALFLSDHNGWTALHHASMGGYTQTMKVILDTNLKCTDRLDEDGNTALHFAAREGHAKAVALLLSHNADIVLNKQQASFLHLALHNKRKEVVLTIIRSKRWDECLKIFSHNSPGNKCPITEMIEYLPECMKVLLDFCMLHSTEDKSCRDYYIEYNFKYLQCPLEFTKKTPTQDVIYEPLTALNAMVQNNRIELLNHPVCKEYLLMKWLAYGFRAHMMNLGSYCLGLIPMTILVVNIKPGMAFNSTGIINETSDHSEILDTTNSYLIKTCMILVFLSSIFGYCKEAGQIFQQKRNYFMDISNVLEWIIYTTGIIFVLPLFVEIPAHLQWQCGAIAVYFYWMNFLLYLQRFENCGIFIVMLEVILKTLLRSTVVFIFLLLAFGLSFYILLNLQDPFSSPLLSIIQTFSMMLGDINYRESFLEPYLRNELAHPVLSFAQLVSFTIFVPIVLMNLLIGLAVGDIAEVQKHASLKRIAMQVELHTSLEKKLPLWFLRKVDQKSTIVYPNKPRSGGMLFHIFCFLFCTGEIRQEIPNADKSLEMEILKQKYRLKDLTFLLEKQHELIKLIIQKMEIISETEDDDSHCSFQDRFKKEQMEQRNSRWNTVLRAVKAKTHHLEP
notes: TRPA1 cation channel; construct and species not described; source: HEK293, transiently transfected, in cells; not shown: YFP or CFP, C-terminal, kept
FRET efficiency (TRPML3): < 5%

B5: TRPC6 (natural protein, UniProt Q9Y210 1-931, looked up)
chain: MSQSPAFGPRRGSSPRGAAGAAARRNESQDYLLMDSELGEDGCPQAPLPCYGYYPCFRGSDNRLAHRRQTVLREKGRRLANRGPAYMFSDRSTSLSIEEERFLDAAEYGNIPVVRKMLEECHSLNVNCVDYMGQNALQLAVANEHLEITELLLKKENLSRVGDALLLAISKGYVRIVEAILSHPAFAEGKRLATSPSQSELQQDDFYAYDEDGTRFSHDVTPIILAAHCQEYEIVHTLLRKGARIERPHDYFCKCNDCNQKQKHDSFSHSRSRINAYKGLASPAYLSLSSEDPVMTALELSNELAVLANIEKEFKNDYKKLSMQCKDFVVGLLDLCRNTEEVEAILNGDVETLQSGDHGRPNLSRLKLAIKYEVKKFVAHPNCQQQLLSIWYENLSGLRQQTMAVKFLVVLAVAIGLPFLALIYWFAPCSKMGKIMRGPFMKFVAHAASFTIFLGLLVMNAADRFEGTKLLPNETSTDNAKQLFRMKTSCFSWMEMLIISWVIGMIWAECKEIWTQGPKEYLFELWNMLDFGMLAIFAASFIARFMAFWHASKAQSIIDANDTLKDLTKVTLGDNVKYYNLARIKWDPSDPQIISEGLYAIAVVLSFSRIAYILPANESFGPLQISLGRTVKDIFKFMVIFIMVFVAFMIGMFNLYSYYIGAKQNEAFTTVEESFKTLFWAIFGLSEVKSVVINYNHKFIENIGYVLYGVYNVTMVIVLLNMLIAMINSSFQEIEDDADVEWKFARAKLWFSYFEEGRTLPVPFNLVPSPKSLFYLLLKLKKWISELFQGHKKGFQEDAEMNKINEEKKLGILGSHEDLSKLSLDKKQVGHNKQPSIRSSEDFHLNSFNNPPRQYQKIMKRLIKRYVLQAQIDKESDEVNEGELKEIKQDISSLRYELLEEKSQNTEDLAELIRELGEKLSMEPNQEETNR
notes: TRPC6 cation channel; construct and species not described; source: HEK293, transiently transfected, in cells; not shown: YFP or CFP, C-terminal, kept
FRET efficiency (TRPML3): < 5%

More lines, now with the values ahead:

FRET efficiency [1]: < 5%
Molecule: YFP alone

FRET efficiency (TRPML3): < 5%
B1: TRPV2 (natural protein, UniProt Q9Y5S1 1-764, looked up)
chain: MTSPSSSPVFRLETLDGGQEDGSEADRGKLDFGSGLPPMESQFQGEDRKFAPQIRVNLNYRKGTGASQPDPNRFDRDRLFNAVSRGVPEDLAGLPEYLSKTSKYLTDSEYTEGSTGKTCLMKAVLNLKDGVNACILPLLQIDRDSGNPQPLVNAQCTDDYYRGHSALHIAIEKRSLQCVKLLVENGANVHARACGRFFQKGQGTCFYFGELPLSLAACTKQWDVVSYLLENPHQPASLQATDSQGNTVLHALVMISDNSAENIALVTSMYDGLLQAGARLCPTVQLEDIRNLQDLTPLKLAAKEGKIEIFRHILQREFSGLSHLSRKFTEWCYGPVRVSLYDLASVDSCEENSVLEIIAFHCKSPHRHRMVVLEPLNKLLQAKWDLLIPKFFLNFLCNLIYMFIFTAVAYHQPTLKKQAAPHLKAEVGNSMLLTGHILILLGGIYLLVGQLWYFWRRHVFIWISFIDSYFEILFLFQALLTVVSQVLCFLAIEWYLPLLVSALVLGWLNLLYYTRGFQHTGIYSVMIQKVILRDLLRFLLIYLVFLFGFAVALVSLSQEAWRPEAPTGPNATESVQPMEGQEDEGNGAQYRGILEASLELFKFTIGMGELAFQEQLHFRGMVLLLLLAYVLLTYILLLNMLIALMSETVNSVATDSWSIWKLQKAISVLEMENGYWWCRKKQRAGVMLTVGTKPDGSPDERWCFRVEEVNWASWEQTLPTLCEDPSGAGVPRTLENPVLASPPKEDEDGASEENYVPVQLLQSN
notes: TRPV2 cation channel; construct and species not described; source: HEK293, transiently transfected, in cells; not shown: YFP or CFP, C-terminal, kept

whole-cell current density of the novel current at −150 mV in standard bath solution (condition 1), HEK293 cells cotransfected with TRPV5 and TRPML3 (TRPV5 (mouse) [2]): -0.129 nA/pF
average open time, single channels of cotransfected HEK293 cells, first type of current, condition 1 (TRPV5 (mouse) [3]): 0.4 ms
average open time, single channels of cotransfected HEK293 cells, second type of current, condition 1 (TRPV5 (mouse) [3]): 0.16 ms
average open time, single channels of cotransfected HEK293 cells, second type of current, condition 2 (TRPV5 (mouse) [3]): 0.17 ms
mean open time, single channels of cotransfected HEK293 cells, first type of current, condition 2 (TRPV5 (mouse) [3]): 5.98 ms
single channel conductance at −150 mV, outside-out patches of cotransfected HEK293 cells, first type of current, condition 1 (TRPV5 (mouse) [3]): 32.3 pS
single channel conductance, cotransfected HEK293 cells, first type of current, condition 2 (TRPV5 (mouse) [3]): 33.4 pS
single channel conductance, cotransfected HEK293 cells, second type of current, condition 1 (TRPV5 (mouse) [3]): 34.6 pS
single channel conductance, cotransfected HEK293 cells, second type of current, condition 2 (TRPV5 (mouse) [3]): 46.7 pS
B2: TRPML3 (natural protein)
chain: MANPEVLVSSCRARQDESPCTFHPSSSPSEQLLLEDQMRRKLKFFFMNPCEKFWARGRKPWKLAIQILKIAMVTIQLVLFGLSNQMVVAFKEENTIAFKHLFLKGYMDRMDDTYAVYTQSEVYDQIIFAVTQYLQLQNISVGNHAYENKGTKQSAMAICQHFYRQGTICPGNDTFDIDPEVETECFLVEPDEASHLGTPGENKLNLSLDFHRLLTVELQFKLKAINLQTVRHQELPDCYDFTLTITFDNKAHSGRIKISLDNDISIKECKDWHVSGSIQKNTHYMMIFDAFVILTCLASLVLCARSVIRGLQLQQEFVNFFLLHYKKEVSASDQMEFINGWYIMIIISDILTIVGSVLKMEIQAKSLTSYDVCSILLGTSTMLVWLGVIRYLGFFAKYNLLILTLQAALPNVMRFCCCAAMIYLGYCFCGWIVLGPYHEKFRSLNRVSECLFSLINGDDMFSTFAKMQQKSYLVWLFSRVYLYSFISLFIYMILSLFIALITDTYETIKHYQQDGFPETELRKFIAECKDLPNSGKYRLEDDPPGSLLCCCKK
